According to publication PMC7555452, “Functional Characterization of a Putative RNA Demethylase ALKBH6 in Arabidopsis Growth and Abiotic Stress Responses”:

T1: ALKBH6 (Arabidopsis thaliana, UniProt Q9SUP1 1-241)
T1 sequence: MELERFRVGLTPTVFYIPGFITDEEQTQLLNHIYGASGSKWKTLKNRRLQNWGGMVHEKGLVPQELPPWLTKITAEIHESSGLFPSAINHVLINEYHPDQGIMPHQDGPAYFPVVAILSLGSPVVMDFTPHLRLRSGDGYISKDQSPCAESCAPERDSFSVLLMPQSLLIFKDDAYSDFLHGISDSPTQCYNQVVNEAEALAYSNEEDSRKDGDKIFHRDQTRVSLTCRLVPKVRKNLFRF


Biological target: T1, ALKBH6
Assay: EMSA; 3, 5, 7 uM protein; 10 mM Tris-HCl pH 8.0, 150 mM NaCl, 1.0 mM EDTA, 10% glycerol; 5.0 pmol RNA in 20 uL, on ice 30 min; 6% native PAGE, 0.25x TBE, 4 °C
Settings: protein: recombinant; tags: His-TF (pCold TF) fusion, cleaved with HRV 3C protease; Ni-NTA purified; label: 5'-fluorescein

Binder	binding result
CGUAGGCUACAGAGAAGCCUU (ssRNA) [MAT2A RNA unmodified]	binds
CGUAGGCUACAGAGAAGCCUU (ssRNA, m6A at position 11) [MAT2A RNA m6A]	binds
GGACGCUUCUUCGACCU (ssRNA, m5C at position 9) [m5C motif RNA m5C]	binds
GGACGCUUCUUCGACCU (ssRNA) [m5C motif RNA unmodified]	binds
GAAUCCGAACUAGUUCU (ssRNA) [SOS3 RNA unmodified]	binds
GAAUCCGAACUAGUUCU (ssRNA, m6A at position 9) [SOS3 RNA m6A]	binds
